The text below walks through data of the DeepSol protein solubility set.

A short description of this series: soluble on expression in E. coli; label from the status in PepcDB or PDB records.
As for “GPGSMMSSATLSDVETLENIPRGAPIGGSGIVSGTASEGSSRGAERSTVANVSEDGERGRREEEEDRKPLIMDQSVIMDEEPYISPAKAKKISWKCGLCGYYVLAMDHNGNPLELTNSPSGEPLPMSCPRCMLLHHDWEPAVPFDDFNNHANIRSKQSNSYVISDQKSGKQAGFVPARTPAERDLKKTSADITRILQEVEDRWRNYAPRESPTSREQGPKGRLMAYYCDKCNRELLRMDQYGELVPMVSDKEGKPLPIVCPGCKEEHSEWVVRPFTVTR”, the “soluble on expression in E. coli” value is “soluble”. The same measure for “GPGSMPLERSFIDPGHASMGYEAGLIPRLRRDSIVRGVLEENEDMLREIDLLRDTVTKQAQELFTATKRIHVLESRLARLEGAEDASHERTDDSDNVEEVTSVDKAGILRSIFRAISSCQFGDRHTRIRAYKQGLVRKSAEKARDFGEKSEKKSELPGKEQQDFLGHAFHESNKRLDEVSSLLQSYRKTPSFLVSAYDELVIDCMMEIIRLSKKMNLMTVGDFGALAD”: “not soluble”.

In the case of “GPGSMPPSTAAPYALRTDKLKPLEGYVAGCSVSPAEVASQVASSLQPVVLAICGSFNPIHNAHLKLYDAAKRSVDGADGRVVLGGFLSPVGDAYGKPGLRSAADRVHIMRKALCHHPDLNVDTWECQQPVYMRTFFVLQALEEHINAWYAESEPAAVEWLASHDRRVRVAFVCGADLFSSFWIPGCWQLRLLRQLLDSFHLVVVHRDGGRGCVRGADDFAHVCQTAPLLSETAEGGEKIEIDMSQYTFTFATFSAPDDTSSTAVRAAAMELARTPQGDAVTRAALQSRLRAMLPEAAVQSVVELYGKVLTS”, the “soluble on expression in E. coli” value is “not soluble”.

Consider “GPGSMQLQSRAPEHFSTPFFSSPSSSVAYESGCSLDALERLVHFTGAGADACLYAVHPPQAKGTDSAALTPTTEGLRYWLNPSVRARPTTATCEITNLGPPFFASTSTAVLRISATPLFVDGRCFPTRCVVSLATSAQRLDGVSLRPVVVTEWNLTASGAAGVCTTTVPLRTLYHLAVLISSSAPATGVEEVRLYLHLRFMGCSDGSDTHRIAAVRLRYEQLGTAAEVLPQLLQRRQRAAAHVMLPSPYDVKYHSEGRFTRAGAPLEEVEVGVIAGSSTATSSGRKDMGDDAGKSLFVGAKERRTHTSPPSSTRMRSDGCETRGDRRRGRAPRGC”, for which the “soluble on expression in E. coli” value is reported as “soluble”. The same measure for “GPGSMQTAHAHTMTAQMKVLKPKTVFDNRPDEARKPIKLILLGDSAVGKSKLVERFLMQRYIPVQMSTYALTLYRYDFVTEDGEEVDVDIWDTAGQERFATVHPSYYHDAHACILVFDSTRKATYKNLEKWLSEMRVYREHIPCLVACNKIDTDPSVTTKSFAFAEKHNFPLYYVSAADGSNVVQLFESAISTAAAYKKNPAKDDFMTQVIGILKEDKTAAGASAVSS”: “soluble”. In the case of “GPGSMRLLSFSNVPLFLALFPPLPLLSCASVWHTRRHSFSEIFFVGSFIAAPFRCIVSPRVALYRARLRFLAPAACTRALPFAYTGQQGERQIKMITATADAGSAAKAAAAPPARMFDCLDAASKERVTMLLSHYQVLLPVEQASFMQELERYNQEQQTTALERNKAGEVWIRYTNPRLQAVQARDPAYVQRSISHTAASRGSKGDAAPEEATAPCSLEDLVHIRGMFGEPEGVPIRVGKMSLYEKLQQNMRNRRSTACGSLANTTVSSIPTAADAGHGAARVSVPFGPFAEAPAKPAEGKREVGDNASPKTSAQSESGERAVALVCADTFPSHTSSVRPSAPYRNNAYQAVRLAMSSPGYTATTQPTSVAELQTPLDGVKPVLNTTAFPITEEELRDWFDELDVHGRGVLSVEEFQRYMQSLERDLGVPTEYATLELDGAQLAKDGWLSFEAFSYLVLRFVRA”, the “soluble on expression in E. coli” value is recorded as “not soluble”. The same measure for “GPGSMRPSRKRQARRQHPWQQRSVAHKAQRAPSSGHGASGVEHLPRDAVVHVAPRQQHRPVGQAHRRIKRHRVVLRQQKVVPHKRHSRARHAHSPTHRHRVLAQQEVAVNKRHHGAATGRNTALHRHAQPQRRLHRQPVHVERTARRQRHAAN”: “soluble”; for “GPGSMRRVVITGLGLVSPLAGDVEYSWKRLLEGKSGVRRITEFDVSDLSCQIAARIPVGDGTNGTYNADLHMESKEQRKVDAFIVYAIAAADQALADAEWFPKSDEDQICTGVLIGSGIGGIEGIVEAGYTLRDKGPRRISPFFIPGRLINLASGYVSIKYGLRGPNHSVVTACSTGAHAIGDAARLIALGDADVMLAGGTESPINRISLAGFSACRALSTCRNDDPERASRPYDVDRDGFVMGEGAAIVVLEELEHAKKRGARIYAEIIGYGLSGDAYHITAPSESGEGAQRSMMAALKRAQVNVSELDYINAHGTSTMADVIELAAVERVLGYYAPQVSMSSTKSSIGHLLGAAGAAEAIFCVLAIRDNIAPATLNLENPSIETKIDLVPHKPRERKIDTVLSNSFGFGGTNASLVMRRFSE”: “soluble”. Take “GPGSMSAHDSSAMALIAHMNDIEQQRRVLSMSQREQEAKIAFTTAEKEQLVQAAKAAEAEEAQLKDDLEVLATEQQQLELQKMEATDRLRRTQAEEALHTAAVEADLQALAKEKVLWHERAQDLESLRRSWEEDAATSSCIAALRQESEMLAPLKAEKTAVEDALAETMAAIEKVRAEQQARLTCLGSVGAPADAVQRSGLARALASMHGSALSDGNTATVDDDDTAAALEEEIKRADYEAAQVTARHGRTIAVLQREVDALSTRAGELQQLLSSIGASWQEVLSRTRDLQHCKETGLCRRCLT”: the “soluble on expression in E. coli” value is “soluble”. On to “GPGSMSDAFDIDEDMKMRIRVLNEIMYEDELDDGQQDVHLARGDIIDGTSDSDRDDNGGGGQRRRERRRGGGGADVCAPGPPRAETWAAVEGPEAAAASAASSLQQRAPRDEYHDKRYHEKRSKDRLARTKQIQSARNERVPAYANKKKTSKAKAGGSKGSLQRAVKRGKFTADA”, for which the “soluble on expression in E. coli” value was “soluble”. The same measure for “GPGSMSEHATTDLEGRYAQLATIQSEIDAAPLLSPTVEKLGDGCNLMTEFSDNPPMLVKVVSLWRNEETKYKGIRYARRDGNCFYRSVVFGMHESLLNNKERAGAHLERITDLSRQVVADYGNFAEDFCHPAVEMAKKIESGECSTVEQLYELSTNGEAEYALYFYRYAVSHHIRTHEDDFLPFVVGMGHETVSEFCSVEVDAVASEADNVQVVAFAQCFDVRVIVEYVDGREGDCTTRHTFQQKDSHDANEYTTIEVTLLYRPGHYDLLYK”: “soluble”; for “GPGSMSETIPVSVQCCEGRFELSVDSNHTLRDVLRQFKREVAALDPINLEEYVVNHEGKLLLDDSVTLQTVGVKKDSVFVLVRKACCPAASPEKDEDDM”: “soluble”; for “GPGSMSTFETVKEEKLEFEKNCDQHIYEKALLTFKGVDGMDVYNCSAPFKYEGRTHIFGRVEKRLEWANSYVRLFVETNKDEFTLVPGNMVWQLEDPFVSNIDNEMFLGGTHIRKTNNRVFTYYCDFFRGTAENLSYFTTGPDNMKDIRLVKLANNKIGVFSRPKTAAHAFIGFTVINNVMELTPTVIEEAPPLNVIHTGAWGGVNQAYLLSSDKLGCISHYSYIDKDEDGNEITVYTNYSFVLNPYLREVEDARIIGTKGCYPKCSPKVHKLLDCAFSSGIVMREDGRCDLYSGLGDAHEGRITIDYPFEGHGTLIDNLHF”: “soluble”. With “GPGSMTSASKKSTEENSEEVECTNSSRKRRMRQRERNIYISECHGIKELSSLVRRGFQQIMTARGLFISGCPDLVKLDDGTSGEEEGGEYYRQLEEVQVSRCPRLTDLSGLGKCKYLKVVDISDCRKLENIGELKSCRTLEKLALSRCTGLVDVNLRGFGKLLSFDIFKCANLTKICGLFGCPILETLTVEECGDVKEMEVRTIRGRVETLRIAGKRAMENVGFLCLFTNMKKLALCGCVGTVAEVLGEEAGGLPRLKWLELIGIRMERQMKDKPGNGVAATEEGNNAKRVLPMIVQNE”, the “soluble on expression in E. coli” value is recorded as “not soluble”. In the case of “GPGSMVPTLHPGEYIVFVPYTMLQVRRWFNAPLVNLSDVVVVKVSDDLSVCKRVVKCTSSRTQAEEWGKEHYVEVMPALYSPPAAQHTNGDDEDSTEIDSVANSERAYFDYVARNTVRSKDWDSCIDRIPNPSQWVWLEGDNKSESFDSRRCGPVPIECIRGLVLASIWPSPHTLQRPPPPPRASQLH” it was “not soluble”; in that of “GPGSMVRRNNKSTESTIVFTRGAGDNSLWDDADLIRLWNAQLEEDQCEKAEDEAPVPSTVSEDGSLITTEDDEVAESEQKSSLRSFQSGQREAGVASAIVTAAPINASVAPVVLHQSMFDRLPADIRQLLVAYFNAGYEAGYFVGKRDGSSKVGGKRARGE”, “not soluble”. The same measure for “GPGSMVVASCPGKVLILGGYLIVEEPNVGISVGTTARFVTRVASWKKCSDGKCRVHIVSSQFNKEFTFECAAEEDSDSTIKIVQLEGAPSPFLFYGILYSVAGALLFGGDIFRDVTLELLADNDFYSQRNYLESQGKPVTAANLRLIPRYTPLLGEVSKTGLGSSAAMTTSVVACLLQLYVFDSKKNNATESVERAPELPLRLEDVTEFIHRISQVAHCVAQGKVGSGFDVYTATFGTCVYRRFSARVLEKLVKGNEPPKRVTIPLLRECVETDEVWVQRIPFRLPTGLQLLLGDVHKGGTETPGMVSKVMSWRRSVTTDPNSLWERLRMSNEKYVEALQGLIKQSQEAPVAYTEAVKNLKSVVLAKHNPSTEAERLWVEAASVASTSRRYLREMGEAAQVQIEPPELTSLLDATCSIPGVFAVGCPGAGGYDAVFALVLGEEVCSAVERFWECYNDLQVCPLLVRGDANGLVLD”: “not soluble”; for “GPGSMYRSDTDERKRRQSVSWRKRASFIELDCGEDSFFVANNYKVIGVADGVGGWRAEGVDPSLFANALMENAKLFAETHRGERDPEKILDAAYTKVVKDGIVKVGSSTACVATLRKDDDGSHKLDVANLGDSGVMVVRNRSMYFRAHEKVHGFNAPFQLAVLPQPMVGRAFSDRVQDCVRESVPVQEGDVIVMGTDGLFDNRFNSQLAADAGWIGKVEESPIAKIPLVGFFLSGILDEKIDYVDPYRVAQRIITDAYKTSVNPDTNSPWASMLRQFGQTDAKGGKPDDITVLLSRVSTREELSNSTSW”: “not soluble”.

“GPGSPKLVRINTNEKGITNVQLARAPVNSMSLELFQELNQWMLWLGSNEETKAVIISSAIPTVFSAGLDLVEVHNPKPDRVAVFWQSFQEMWLILNSFPKPIIAAITGNSPAAGCIIAMGCDYRVMARGPKGNTNNNRLYRIGLNETKLGLVAPPWVMPAYAYLLGSRQAERMLQLGETPVADDARNLGLIDEVAADEERAIEVAYQQAERFLSVPQQSRWMARDMMRREYLQMLASDEERNYDTEFFTQFVQSPEVQKNLESYLERLKSCSRK”: the “soluble on expression in E. coli” value is “soluble”. In the case of “GPGSYDSNLYVASLPEWFTDADLHELFKRFGPIVSAKVMCHKGTHHCKGYGFVLFQRTDDAAVARSEMIGHVVGGNKIQVRRARSAASAPLTEAASAVSGTFTESSGSTRTSSSNVTPINYSVHVVPSQQPSFNPLYPATTALTPTYVLTNPSAPVQNATHTQPAMLVAVPNGRTMVQGAGDVMYMVLASSAQQMQSTSAIY” it was “not soluble”.
